In article PMC7326820, “Characterization of Purple Acid Phosphatase Family and Functional Analysis of GmPAP7a/7b Involved in Extracellular ATP Utilization in Soybean” (Frontiers in Plant Science, 2020):

B1: GmPAP7b (Glycine max) (protein)
chain: MASSLNQRMVFPVMVVVGMFCLLVTPSIAELPRFKHPPKKQQSLNILVLGDWGRKGTYNQSLVANQMGIVGEKLDIDFVISTGDNFYEDGLKGVDDPAFYQSFIHMYTAPSLQKTWYTVLGNHDYRGDVEAQLSPILKQKDSRWLCMRSFILDGEIVEFFFVDTTPFVEEYFTDPGEHTYDWEGVLPRLAYVSKLLKDVDSALAQSKAKWKMVVGHHTINSAGHHGSTEDLKQLLVPILEANNVDAYINGHDHCLQHIIDNNNGIHFITSGGGSKAWSGDVKPWKLEELKLYYDGQGFMSMQITKSTAYIIFYDAFGKVLHTWSISKDRNVAAWI
B2: GmPAP7a (Glycine max) (protein)
chain: MASSLNQRMLFPLMFVIGMFCLMVTPSIAELPIFKHPPKKQQSLNILVLGDWGRKGTYNQSLVANQMGIVGEKLDIDFVISTGDNFYEDGLKGVDDPAFYQSFVDMYTAPSLQKTWYTVLGNHDYRGDVGAQLSPILKQKDSRWLCMRSFILDGEIVEFFFVDTTPFVEEYFTDPGEHTYDWEGVLPRLAYLSELLKDVDLALAQSKAKWKMVVGHHTINSAGHHGNTEELKQLLVPILEANDVDAYINGHDHCLQHIIDNNSGIHFITSGGGSKAWSGDVKPWKLEELKLYYDGQGFMSMQITKSKADIIFYDAFGKVLHTWSISKDRNVAAWI

Substrate: Nc1ncnc2c1ncn2[C@@H]1O[C@H](COP(=O)(O)OP(=O)(O)OP(=O)(O)O)[C@@H](O)[C@H]1O
Test: Pi release, Lineweaver-Burk plot
Type: biochemical, Glycine max
Settings: pH and temperature not stated for kinetics (substrate tests in 45 mM Na-acetate pH 5.0)

Protein | Km [µM]
B1 | 66
B2 | 110
